Data on five molecules can be found in paper PMC5499591 (Nucleic Acids Research, 2017).

One data set has as its target T1, GST-Mcm10 (wild type) (Saccharomyces cerevisiae, UniProt P32354 1-571).
T1 sequence: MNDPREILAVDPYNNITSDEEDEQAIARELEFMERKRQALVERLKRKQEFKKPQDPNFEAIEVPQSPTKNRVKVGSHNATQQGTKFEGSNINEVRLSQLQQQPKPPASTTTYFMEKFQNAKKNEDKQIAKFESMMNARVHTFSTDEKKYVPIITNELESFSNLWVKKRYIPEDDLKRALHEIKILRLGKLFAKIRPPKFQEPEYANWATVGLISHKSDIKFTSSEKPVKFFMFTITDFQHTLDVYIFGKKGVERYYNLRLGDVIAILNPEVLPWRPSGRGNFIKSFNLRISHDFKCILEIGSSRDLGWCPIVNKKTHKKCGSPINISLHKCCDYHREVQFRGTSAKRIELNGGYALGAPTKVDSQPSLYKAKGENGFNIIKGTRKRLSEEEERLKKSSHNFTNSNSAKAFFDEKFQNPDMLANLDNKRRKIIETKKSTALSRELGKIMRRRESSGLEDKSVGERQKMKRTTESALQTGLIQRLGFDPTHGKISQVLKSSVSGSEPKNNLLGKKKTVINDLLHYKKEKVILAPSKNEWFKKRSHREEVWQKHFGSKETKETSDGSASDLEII
As to the kind of experiment: GST pull-down.

A further data set addresses T2, wild-type GST-Mcm10 (Saccharomyces cerevisiae, UniProt P32354 1-571).
T2 sequence: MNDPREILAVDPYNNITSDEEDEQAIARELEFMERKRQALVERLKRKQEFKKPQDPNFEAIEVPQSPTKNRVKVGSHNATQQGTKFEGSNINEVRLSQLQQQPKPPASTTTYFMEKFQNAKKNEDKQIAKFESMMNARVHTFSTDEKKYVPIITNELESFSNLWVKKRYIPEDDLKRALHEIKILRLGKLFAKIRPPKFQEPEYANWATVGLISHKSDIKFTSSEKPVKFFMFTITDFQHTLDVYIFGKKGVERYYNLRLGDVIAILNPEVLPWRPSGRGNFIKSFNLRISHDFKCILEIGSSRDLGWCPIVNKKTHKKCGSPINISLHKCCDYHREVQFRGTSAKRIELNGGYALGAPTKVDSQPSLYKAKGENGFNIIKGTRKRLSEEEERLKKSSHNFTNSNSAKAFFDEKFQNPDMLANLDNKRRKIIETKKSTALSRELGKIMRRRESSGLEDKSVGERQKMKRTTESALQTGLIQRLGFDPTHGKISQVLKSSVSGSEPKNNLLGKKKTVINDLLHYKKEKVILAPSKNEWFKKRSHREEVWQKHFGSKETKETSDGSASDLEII
The experiment in a line: pull-down.

A further data set addresses T3, GST-p180 (budding yeast (S. cerevisiae), UniProt P13382 1-1468).
T3 sequence: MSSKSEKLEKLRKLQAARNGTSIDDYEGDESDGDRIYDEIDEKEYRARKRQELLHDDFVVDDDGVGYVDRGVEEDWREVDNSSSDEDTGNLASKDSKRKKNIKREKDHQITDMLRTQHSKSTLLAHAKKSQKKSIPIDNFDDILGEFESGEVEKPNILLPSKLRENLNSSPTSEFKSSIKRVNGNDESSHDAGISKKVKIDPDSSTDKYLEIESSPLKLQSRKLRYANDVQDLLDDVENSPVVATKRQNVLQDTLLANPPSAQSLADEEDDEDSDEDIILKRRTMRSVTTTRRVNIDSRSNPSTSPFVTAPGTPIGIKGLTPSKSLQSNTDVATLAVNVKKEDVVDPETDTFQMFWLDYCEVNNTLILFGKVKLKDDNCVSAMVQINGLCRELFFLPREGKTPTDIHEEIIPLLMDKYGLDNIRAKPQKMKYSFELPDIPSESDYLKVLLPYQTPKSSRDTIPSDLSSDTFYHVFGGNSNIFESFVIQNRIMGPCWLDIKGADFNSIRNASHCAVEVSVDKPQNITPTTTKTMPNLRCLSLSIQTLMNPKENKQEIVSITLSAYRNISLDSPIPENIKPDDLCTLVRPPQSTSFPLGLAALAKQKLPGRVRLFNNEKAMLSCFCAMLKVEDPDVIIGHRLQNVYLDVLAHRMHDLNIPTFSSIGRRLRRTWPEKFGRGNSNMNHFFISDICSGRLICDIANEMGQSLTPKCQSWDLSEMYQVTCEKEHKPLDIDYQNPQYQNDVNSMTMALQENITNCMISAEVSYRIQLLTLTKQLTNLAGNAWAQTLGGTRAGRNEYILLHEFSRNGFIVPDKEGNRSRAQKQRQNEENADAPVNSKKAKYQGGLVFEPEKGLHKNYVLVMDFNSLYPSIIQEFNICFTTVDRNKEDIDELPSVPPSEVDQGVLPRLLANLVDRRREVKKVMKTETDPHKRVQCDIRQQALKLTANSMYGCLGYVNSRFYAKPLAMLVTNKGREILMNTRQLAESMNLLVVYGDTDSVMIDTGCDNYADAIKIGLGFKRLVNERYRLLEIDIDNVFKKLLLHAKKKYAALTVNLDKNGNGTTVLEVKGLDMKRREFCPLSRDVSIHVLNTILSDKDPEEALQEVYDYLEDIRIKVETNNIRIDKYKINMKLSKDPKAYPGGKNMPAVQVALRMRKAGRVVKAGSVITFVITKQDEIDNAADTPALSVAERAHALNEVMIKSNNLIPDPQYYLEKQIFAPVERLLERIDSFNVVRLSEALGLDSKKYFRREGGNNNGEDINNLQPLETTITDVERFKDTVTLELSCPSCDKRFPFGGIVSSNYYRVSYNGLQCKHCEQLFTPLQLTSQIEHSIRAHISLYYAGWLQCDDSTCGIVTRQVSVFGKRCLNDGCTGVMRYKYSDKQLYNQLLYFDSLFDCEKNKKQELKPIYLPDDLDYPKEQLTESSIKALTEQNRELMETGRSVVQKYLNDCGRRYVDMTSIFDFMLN
As to the kind of experiment: pull-down.

Data set [1] concerns the target radiolabeled PKA-Mcm2–7 complex (budding yeast (S. cerevisiae), UniProt P29469;P24279;P30665;P29496;P53091;P38132). As to the kind of experiment: pull-down.
Another data set concerns the target T4, GST-Dbf4 (budding yeast (S. cerevisiae), UniProt P32325 1-704).
T4 sequence: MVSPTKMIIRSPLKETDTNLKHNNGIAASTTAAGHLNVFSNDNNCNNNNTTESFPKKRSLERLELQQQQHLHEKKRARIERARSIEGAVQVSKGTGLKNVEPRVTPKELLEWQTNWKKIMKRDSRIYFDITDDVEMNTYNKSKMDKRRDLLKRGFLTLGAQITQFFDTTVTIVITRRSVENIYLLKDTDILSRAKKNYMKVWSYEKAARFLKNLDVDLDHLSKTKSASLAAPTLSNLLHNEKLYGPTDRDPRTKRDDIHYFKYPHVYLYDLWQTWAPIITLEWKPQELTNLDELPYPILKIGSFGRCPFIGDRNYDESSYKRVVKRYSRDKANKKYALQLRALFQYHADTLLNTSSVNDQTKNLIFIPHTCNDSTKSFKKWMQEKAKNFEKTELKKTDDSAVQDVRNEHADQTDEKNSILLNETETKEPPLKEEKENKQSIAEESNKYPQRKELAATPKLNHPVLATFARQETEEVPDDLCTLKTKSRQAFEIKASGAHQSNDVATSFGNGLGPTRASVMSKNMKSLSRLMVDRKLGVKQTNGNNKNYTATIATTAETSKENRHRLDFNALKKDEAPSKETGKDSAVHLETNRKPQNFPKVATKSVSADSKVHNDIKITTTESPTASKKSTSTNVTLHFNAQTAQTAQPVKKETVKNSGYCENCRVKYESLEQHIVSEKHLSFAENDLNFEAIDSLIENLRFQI
The experiment in a line: pull-down.

In a further data set the target is T5, GST-Cdc45 (budding yeast (S. cerevisiae), UniProt Q08032 1-650).
T5 sequence: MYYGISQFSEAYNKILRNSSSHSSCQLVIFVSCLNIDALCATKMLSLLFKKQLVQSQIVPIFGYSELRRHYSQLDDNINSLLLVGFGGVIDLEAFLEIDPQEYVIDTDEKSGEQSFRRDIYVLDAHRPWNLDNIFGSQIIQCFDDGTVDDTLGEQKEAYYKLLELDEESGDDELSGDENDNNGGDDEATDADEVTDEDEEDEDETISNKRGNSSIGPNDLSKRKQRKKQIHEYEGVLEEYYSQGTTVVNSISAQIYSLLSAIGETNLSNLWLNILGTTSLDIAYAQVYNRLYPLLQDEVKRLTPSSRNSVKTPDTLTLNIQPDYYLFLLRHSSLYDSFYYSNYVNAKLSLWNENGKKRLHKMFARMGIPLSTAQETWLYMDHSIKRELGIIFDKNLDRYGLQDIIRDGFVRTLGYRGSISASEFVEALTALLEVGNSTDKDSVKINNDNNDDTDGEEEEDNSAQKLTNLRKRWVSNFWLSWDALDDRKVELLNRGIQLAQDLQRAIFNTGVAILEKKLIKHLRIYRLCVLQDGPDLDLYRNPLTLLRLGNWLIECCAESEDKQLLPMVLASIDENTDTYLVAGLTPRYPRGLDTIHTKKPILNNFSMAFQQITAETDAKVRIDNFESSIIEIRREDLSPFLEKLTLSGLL
The experiment in a line: pull-down.

B1: 80mer ssDNA (80dT) (ssDNA)
DNA: TTTTTTTTTTTTTTTTTTTTTTTTTTTTTTTTTTTTTTTTTTTTTTTTTTTTTTTTTTTTTTTTTTTTTTTTTTTTTTTT
As to B1, the binding result with GST-Mcm10 (wild type) was “binds”.

B2: blunt dsDNA (called 30mer) (dsDNA)
DNA 1: ATGTCCTAGCAAGCCAGAATTCGGCAGCGTC
DNA 2: GACGCTGCCGAATTCTGGCTTGCTAGGACAT
Take B2: the binding result in the data set with GST-Mcm10 (wild type) is on record as “binds”.

B3: radiolabeled wild-type PKA-Mcm10 (natural protein)
chain: MNDPREILAVDPYNNITSDEEDEQAIARELEFMERKRQALVERLKRKQEFKKPQDPNFEAIEVPQSPTKNRVKVGSHNATQQGTKFEGSNINEVRLSQLQQQPKPPASTTTYFMEKFQNAKKNEDKQIAKFESMMNARVHTFSTDEKKYVPIITNELESFSNLWVKKRYIPEDDLKRALHEIKILRLGKLFAKIRPPKFQEPEYANWATVGLISHKSDIKFTSSEKPVKFFMFTITDFQHTLDVYIFGKKGVERYYNLRLGDVIAILNPEVLPWRPSGRGNFIKSFNLRISHDFKCILEIGSSRDLGWCPIVNKKTHKKCGSPINISLHKCCDYHREVQFRGTSAKRIELNGGYALGAPTKVDSQPSLYKAKGENGFNIIKGTRKRLSEEEERLKKSSHNFTNSNSAKAFFDEKFQNPDMLANLDNKRRKIIETKKSTALSRELGKIMRRRESSGLEDKSVGERQKMKRTTESALQTGLIQRLGFDPTHGKISQVLKSSVSGSEPKNNLLGKKKTVINDLLHYKKEKVILAPSKNEWFKKRSHREEVWQKHFGSKETKETSDGSASDLEII
modifications: 32P label put on the PKA tag by protein kinase A with [gamma-32P]-ATP
Take B3: the binding result with wild-type GST-Mcm10 and with GST-p180 was “binds” throughout.

B4: GST-Mcm10-4A (Mcm10-I26A-L30A-R37A-L40A) (natural protein)
chain: MNDPREILAVDPYNNITSDEEDEQAAAREAEFMERKAQAAVERLKRKQEFKKPQDPNFEAIEVPQSPTKNRVKVGSHNATQQGTKFEGSNINEVRLSQLQQQPKPPASTTTYFMEKFQNAKKNEDKQIAKFESMMNARVHTFSTDEKKYVPIITNELESFSNLWVKKRYIPEDDLKRALHEIKILRLGKLFAKIRPPKFQEPEYANWATVGLISHKSDIKFTSSEKPVKFFMFTITDFQHTLDVYIFGKKGVERYYNLRLGDVIAILNPEVLPWRPSGRGNFIKSFNLRISHDFKCILEIGSSRDLGWCPIVNKKTHKKCGSPINISLHKCCDYHREVQFRGTSAKRIELNGGYALGAPTKVDSQPSLYKAKGENGFNIIKGTRKRLSEEEERLKKSSHNFTNSNSAKAFFDEKFQNPDMLANLDNKRRKIIETKKSTALSRELGKIMRRRESSGLEDKSVGERQKMKRTTESALQTGLIQRLGFDPTHGKISQVLKSSVSGSEPKNNLLGKKKTVINDLLHYKKEKVILAPSKNEWFKKRSHREEVWQKHFGSKETKETSDGSASDLEII
On to B4, for which the binding result in data set [1] is listed as “binds”.

B5: radiolabeled PKA-Mcm10-4A (Mcm10-I26A-L30A-R37A-L40A) (natural protein)
chain: MNDPREILAVDPYNNITSDEEDEQAAAREAEFMERKAQAAVERLKRKQEFKKPQDPNFEAIEVPQSPTKNRVKVGSHNATQQGTKFEGSNINEVRLSQLQQQPKPPASTTTYFMEKFQNAKKNEDKQIAKFESMMNARVHTFSTDEKKYVPIITNELESFSNLWVKKRYIPEDDLKRALHEIKILRLGKLFAKIRPPKFQEPEYANWATVGLISHKSDIKFTSSEKPVKFFMFTITDFQHTLDVYIFGKKGVERYYNLRLGDVIAILNPEVLPWRPSGRGNFIKSFNLRISHDFKCILEIGSSRDLGWCPIVNKKTHKKCGSPINISLHKCCDYHREVQFRGTSAKRIELNGGYALGAPTKVDSQPSLYKAKGENGFNIIKGTRKRLSEEEERLKKSSHNFTNSNSAKAFFDEKFQNPDMLANLDNKRRKIIETKKSTALSRELGKIMRRRESSGLEDKSVGERQKMKRTTESALQTGLIQRLGFDPTHGKISQVLKSSVSGSEPKNNLLGKKKTVINDLLHYKKEKVILAPSKNEWFKKRSHREEVWQKHFGSKETKETSDGSASDLEII
modifications: 32P label put on the PKA tag by protein kinase A with [gamma-32P]-ATP
Consider B5, for which the binding result with GST-Dbf4, in the data set with GST-Cdc45 and in the data set with GST-p180 was “binds” throughout.
